Results as given in US8680041B2, “Genetic variations associated with tumors” (Genentech, Inc., priority 2006, dated 2014).
Values belong to the molecule of their own block, whether it stands above or below them.

Tests used:
[1] = target: T1, p110alpha E545K (Homo sapiens, UniProt P42336, E545K); assay: Co-immunoprecipitation of HA-tagged p85α with p110α in transfected Cos 7 cells; type: binding; set-up: key: “yes” (“Y”); “no” (“N”); details: HA bead immunoprecipitation, blot
T1 construct: expressed in transfected cells; host or cells: Cos 7
Method: (§1) The ability of p85α mutants to bind to p110α was assessed. Cos 7 cells were transiently transfected with nucleic acid encoding N-terminally HA-tagged p85α protein (either wild-type or mutant, as indicated in Table 2 below) and with nucleic acid encoding p110α (either wild-type or mutant, as indicated in Table 2 below). Proteins were immunoprecipitated using HA beads, separated by SDS-PAGE, transferred to nitrocellulose, and detected using anti-HA and anti-p110α antibodies. Binding of p85α to p110α is indicated as either “yes” (“Y”) or “no” (“N”) in Table 2. In the second row of Table 2, the term “p85 Dominant Negative” refers to a known dominant negative form of p85α in which the p110α binding domain from amino acids 479-513 is deleted. The remaining mutant forms of p85α listed in the first column of Table 2 were discovered pursuant to this study. In the header row of Table 2, the terms “p110alpha E545K” and “p110alpha H1047R” refer to two known mutational “hot spots” in p110α which result in constitutively active p110α.

[2] = target: T2, p110alpha H1047R (Homo sapiens, UniProt P42336, H1047R); assay: as above; type: binding; set-up: key: “yes” (“Y”); “no” (“N”); details: HA bead immunoprecipitation, blot
T2 construct: expressed in transfected cells; host or cells: Cos 7
Method: as §1

[3] = target: T3, p110alpha WT (Homo sapiens, UniProt P42336); assay: as above; type: binding; set-up: key: “yes” (“Y”); “no” (“N”); details: HA bead immunoprecipitation, blot
T3 construct: expressed in transfected cells; host or cells: Cos 7
Method: as §1

[4] = tested on: wild-type p110α; assay: Fluorescence polarization assay of p110α activity in p85α/p110α complexes, phosphoinositide as substrate; type: biochemical; details: for p110α activity of the complex compared with the wild type complex (in words): absence of peptide; for Activity of p110α in the complex, No peptide: no phosphotyrosine peptide; for Activity of p110α in the complex, No peptide / Activity of p110α in the complex, Peptide (1 uM): normalized to wild-type complex in the absence of peptide; for Activity of p110α in the complex, Peptide (1 uM): phosphotyrosine (IRS-1) peptide 1 uM
Method: The ability of p85α mutant proteins to form active complexes with p110α was also assessed. Complexes consisting of p85α protein (either wild-type or mutant, as indicated in Table 3 below) and wild-type p110α were expressed in baculovirus. Activity of p110α in the complexes was assessed using a fluorescence polarization assay with phosphoinositide as the substrate. The assay was conducted in the absence or presence of a phosphotyrosine peptide (referred to as “peptide” in Table 3 below). That peptide corresponds to a phosphotyrosine-containing region of Insulin Receptor Substrate-1 that binds to the SH2 region of p85α and enhances the activity of the wild-type p85α/p110α complex. See Miled et al., Science, 317:239-242 (2007). The p85α mutants tested in Table 3 have mutations in their C-terminal SH2 domains. The activities were normalized to the value obtained for p110α in the wild-type complex in the absence of peptide.

T3 sequence (P42336 whole entry): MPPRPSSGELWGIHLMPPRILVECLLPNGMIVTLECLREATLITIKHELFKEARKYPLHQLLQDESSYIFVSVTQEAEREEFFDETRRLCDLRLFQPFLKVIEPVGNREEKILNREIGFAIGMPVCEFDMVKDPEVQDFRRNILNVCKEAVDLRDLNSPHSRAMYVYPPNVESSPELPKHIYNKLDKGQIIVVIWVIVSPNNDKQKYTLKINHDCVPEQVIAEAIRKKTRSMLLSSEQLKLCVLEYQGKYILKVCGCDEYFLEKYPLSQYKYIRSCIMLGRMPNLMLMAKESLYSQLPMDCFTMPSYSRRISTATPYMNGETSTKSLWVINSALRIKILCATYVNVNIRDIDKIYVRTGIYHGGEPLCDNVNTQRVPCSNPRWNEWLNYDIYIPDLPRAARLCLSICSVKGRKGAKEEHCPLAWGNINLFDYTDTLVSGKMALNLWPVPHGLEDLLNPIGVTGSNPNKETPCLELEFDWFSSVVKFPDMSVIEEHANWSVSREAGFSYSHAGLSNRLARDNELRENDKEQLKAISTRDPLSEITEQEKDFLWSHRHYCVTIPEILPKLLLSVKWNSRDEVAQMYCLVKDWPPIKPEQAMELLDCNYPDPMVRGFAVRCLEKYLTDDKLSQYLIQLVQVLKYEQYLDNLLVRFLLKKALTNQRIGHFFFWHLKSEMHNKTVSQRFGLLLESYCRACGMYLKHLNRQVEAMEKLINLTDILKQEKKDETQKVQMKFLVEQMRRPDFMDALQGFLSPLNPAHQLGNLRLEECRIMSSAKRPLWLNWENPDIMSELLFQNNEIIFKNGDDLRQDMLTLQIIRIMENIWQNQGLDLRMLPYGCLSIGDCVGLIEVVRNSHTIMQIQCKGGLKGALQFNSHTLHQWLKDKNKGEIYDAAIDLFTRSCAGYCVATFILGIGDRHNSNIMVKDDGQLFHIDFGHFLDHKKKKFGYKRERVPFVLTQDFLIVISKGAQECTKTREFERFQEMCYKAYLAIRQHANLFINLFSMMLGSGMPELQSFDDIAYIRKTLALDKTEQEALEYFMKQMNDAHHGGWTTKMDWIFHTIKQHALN
T1 sequence (P42336 whole entry E545K): as the sequence (P42336 whole entry) above, with E545K counted along it
T2 sequence (P42336 whole entry H1047R): as the sequence (P42336 whole entry) above, with H1047R counted along it

- Binding of p85α to p110α [1]: Y
- Binding of p85α to p110α [2]: Y
- Binding of p85α to p110α [3]: Y
Molecule: p85 A682V: mutant form of p85α discovered pursuant to this study

- Binding of p85α to p110α [1]: N
- Binding of p85α to p110α [2]: N
- Binding of p85α to p110α [3]: N
Molecule: p85 Dominant Negative: known dominant negative form of p85α in which the p110α binding domain from amino acids 479-513 is deleted [reference compound]

- Binding of p85α to p110α [1]: Y
- Binding of p85α to p110α [2]: Y
- Binding of p85α to p110α [3]: Y
Molecule: p85 E666K: mutant form of p85α discovered pursuant to this study
- p110α activity of the complex compared with the wild type complex (in words) [4]: comparable to that seen in the wild type complex
- Activity of p110α in the complex, No peptide [4]: 0.92
- Activity of p110α in the complex, Peptide (1 uM) [4]: 2.54

- Binding of p85α to p110α [1]: Y
- Binding of p85α to p110α [2]: Y
- Binding of p85α to p110α [3]: Y
Molecule: p85 L449S: mutant form of p85α discovered pursuant to this study

- Binding of p85α to p110α [1]: Y
- Binding of p85α to p110α [2]: Y
- Binding of p85α to p110α [3]: Y
Molecule: p85 N285H: mutant form of p85α discovered pursuant to this study

- Binding of p85α to p110α [1]: Y
- Binding of p85α to p110α [2]: Y
- Binding of p85α to p110α [3]: Y
Molecule: p85 N527K: mutant form of p85α discovered pursuant to this study
- p110α activity of the complex compared with the wild type complex (in words) [4]: decreased p110α activity
- Activity of p110α in the complex, No peptide [4]: 0.75
- Activity of p110α in the complex, Peptide (1 uM) [4]: 1.92

- Binding of p85α to p110α [1]: Y
- Binding of p85α to p110α [2]: Y
- Binding of p85α to p110α [3]: Y
Molecule: p85 N564D: mutant form of p85α discovered pursuant to this study
- p110α activity of the complex compared with the wild type complex (in words) [4]: increased p110α activity
- Activity of p110α in the complex, No peptide [4]: 1.71
- Activity of p110α in the complex, Peptide (1 uM) [4]: 2.47

- Binding of p85α to p110α [1]: N
- Binding of p85α to p110α [2]: N
- Binding of p85α to p110α [3]: N
Molecule: p85 R348stop: mutant form of p85α discovered pursuant to this study; truncated

- Binding of p85α to p110α [1]: Y
- Binding of p85α to p110α [2]: Y
- Binding of p85α to p110α [3]: Y
Molecule: p85 R543I: mutant form of p85α discovered pursuant to this study

- Binding of p85α to p110α [1]: Y
- Binding of p85α to p110α [2]: Y
- Binding of p85α to p110α [3]: Y
Molecule: p85 R574I: mutant form of p85α discovered pursuant to this study

- Binding of p85α to p110α [1]: Y
- Binding of p85α to p110α [2]: Y
- Binding of p85α to p110α [3]: Y
Molecule: p85 R642stop: mutant form of p85α discovered pursuant to this study

- Binding of p85α to p110α [1]: Y
- Binding of p85α to p110α [2]: Y
- Binding of p85α to p110α [3]: Y
Molecule: p85 R649Q: mutant form of p85α discovered pursuant to this study
- p110α activity of the complex compared with the wild type complex (in words) [4]: decreased p110α activity
- Activity of p110α in the complex, No peptide [4]: 0.45
- Activity of p110α in the complex, Peptide (1 uM) [4]: 1.7

Molecule: p85 WT: wild-type p85α, regulatory subunit of PI3K encoded by PIK3R1 [reference compound]
- Activity of p110α in the complex, No peptide [4]: 1
- Activity of p110α in the complex, Peptide (1 uM) [4]: 2.77

- Binding of p85α to p110α [1]: N
- Binding of p85α to p110α [2]: N
- Binding of p85α to p110α [3]: N
B1: p85 R162stop: mutant form of p85α discovered pursuant to this study; truncated (protein)
chain: MSAEGYQYRALYDYKKEREEDIDLHLGDILTVNKGSLVALGFSDGQEARPEEIGWLNGYNETTGERGDFPGTYVEYIGRKKISPPTPKPRPPRPLPVAPGSSKTEADVEQQALTLPDLAEQFAPPDIAPPLLIKLVEAIEKKGLECSTLYRTQSSSNLAEL
modifications: left off: small tags and cut ends
notes: mutant form of p85α discovered pursuant to this study; truncated
